The record followed here is the nanobody polyreactivity screen of Harvey et al. (2022).

This series in a line: yeast display, Sf9 membrane polyspecificity reagent, FACS + sequencing; frameworks hold sequencing errors. The gist of the method: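 Using colony PCR, genes from sorted yeast display clones were amplified, then sequenced on MiSeq at 2 × 250 and filtered by CDR length. The clones had been stained with 10% biotinylated, detergent-solubilized Sf9 membrane reagent for 1 hour at 4 °C and sorted by FACS into low and high (top ~1%) gates on anti-HA and streptavidin fluorescence. Polyreactivity labels come from the gate of origin.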
Consider “QVQLVESGGGLVQAGGSLRLSCAASGSIFRYNTMGWYRQAPGKERELVASIRIGGSTFYADSVKGRFTISRDNAKNTVYLQMNSLKPEDTAVYYCAVRPYRSAGGSVTRGAYYYWGQGTQVTVSS”, for which the “polyreactivity (PSR sort gate)” value is “high polyreactivity”.
The same measure for “QVQLVESGGGLVQAGGSLRLSCAASGSIFRYYAMGWYIQAPGKERELVAVITRGGSTYYADSVKGRFTISRDNAKNTVYLQMNSLKPEDTAVYYCAADYWPAGLDRGYWGQGTQVTVSS”: “low polyreactivity”; for “QVQLVESGGGLVQAGGSLRLSCAASGSIFRYYAMGWYRQAPGKERELVAAISIRGGRTYYADSVKGRFTISRDNAKNTVYLQMNSLKPEDTAVYYCATAFGFTAKYYYWGQGTQVTVSS”: “high polyreactivity”.
Turning to “QVQLVESGGGLVQAGGSLRLSCAASGSIFRYYAMGWYRQAPGKERELVAAISQSGTSTYYADSVKGRFTISRDNAKNTVYLQMNSLKPEDTAVYYCAAYPYYDRDYWGQGTQVTVSS”, the “polyreactivity (PSR sort gate)” value is “low polyreactivity”.
In the case of “QVQLVESGGGLVQAGGSLRLSCAASGSIFRYYAMGWYRQAPGKERELVAAISSRGGTTHYADSVKGRFTISRDNAKNTVYLQMNSLKPEDTAVYYCAADYYLATNPAPLAAGRGYWGQGTQVTVSS” it was “high polyreactivity”.
Regarding “QVQLVESGGGLVQAGGSLRLSCAASGSIFRYYAMGWYRQAPGKERELVAAISWDGGTTYYADSVKGRFTISRDNAKNTVYLQMNSLKPEDPAVYYCNVEFPLSSYGYDYWGQGTQVTVSS”, the “polyreactivity (PSR sort gate)” value is “low polyreactivity”.
Consider “QVQLVESGGGLVQAGGSLRLSCAASGSIFRYYAMGWYRQAPGKERELVAAISWSVGGTYYADSVKGRFTISRDNAKNTVYLQMNSLKPEDTAVYYCAADVLYTQYGYWGQGTQVTVSS”, for which the “polyreactivity (PSR sort gate)” value is reported as “low polyreactivity”.
In the case of “QVQLVESGGGLVQAGGSLRLSCAASGSIFRYYAMGWYRQAPGKERELVASINSGGSTYYADSVKGRFTISRDNAKNTVYLLMNSLKPEDTAVYYCAAETSYYYRGYWKSYDYWGQGTQVTVSS” it was “high polyreactivity”; in that of “QVQLVESGGGLVQAGGSLRLSCAASGSIFRYYAMGWYRQAPGKERELVASIRRGDSTYYADSVKGRFTISRDNAKNTVYLQMNSLKPEDTAVYYCAARFFWPQRGGYWGQGTQVTVSS”, “high polyreactivity”.
As to “QVQLVESGGGLVQAGGSLRLSCAASGSIFRYYTMGWYRQAPGKERELVAAISWSGGSTYYADSVKGRFTISRDNAKNTVYLQMNSLKPEDTPVYYCNAVSFAYNPYSGTYDYRGQGTQVTVSS”, the “polyreactivity (PSR sort gate)” value was “high polyreactivity”.
The same measure for “QVQLVESGGGLVQAGGSLRLSCAASGSIFRYYVMGWYRQAPGKERELVAAISGGSTYYADSVKGRFTISRDNAKNTVYLQMNSLKPEDTAVYYCAAEQWSTGYYYWGQGTQVTVSS”: “high polyreactivity”.
For the sequence “QVQLVESGGGLVQAGGSLRLSCAASGSIFSANAMGWYRQAPGKERELVAAISSSGNTNYSDSVKWRFTISRDNAKNTFYLQMNSLKPEDTAVYYCAVELKQVTPGLGYITLDYWGQGTQVTVSS”, the “polyreactivity (PSR sort gate)” value is listed as “low polyreactivity”.
The same measure for “QVQLVESGGGLVQAGGSLRLSCAASGSIFSANTMGWYRQAPGNEREFVAGITTSAGRTDYADSVKGRFTISRDNAKNTVYVQMNSLKPEDTAVYYCNADRRYYYHYRRYWYDYWGQGTQVTVSS”: “high polyreactivity”.
The same measure for “QVQLVESGGGLVQAGGSLRLSCAASGSIFSANVMGWYRQAPGTERELVAAIRRGGTTYYADSVKGRFTISRDNAKNTVYLQMNSLKPEDTAVYYCATDGIFGSYLRFEVAYDYWGQGTQVTVSS”: “low polyreactivity”; for “QVQLVESGGGLVQAGGSLRLSCAASGSIFSAYAMGWYRQAPGKERELVAAISWRTGRTYYADSVKGRFTISRDNAKNTVYLQMNSLKPEDTAVYYCAVVLGVRPYDKHDYWGQGTQVTVSS”: “high polyreactivity”.
The same measure for “QVQLVESGGGLVQAGGSLRLSCAASGSIFSDNAMGWYRQAPGKERELVAAITWSGGSTYYADSVKGRFTISRDNAKNTVYLQMNSLKPEDTAVYYCAADGDYYWYYHGTYDYWGQGTQVTVSS”: “low polyreactivity”; for “QVQLVESGGGLVQAGGSLRLSCAASGSIFSDNAMGWYRQAPGKERELVASITNSGSTNYADSVKGRFTISRDNAKNTVYLQMNSLKPEDTAVYYCAFSFLYTYDYWGQGTQVTVSS”: “low polyreactivity”; for “QVQLVESGGGLVQAGGSLRLSCAASGSIFSDYAMGWYRQAPGKETELVAGISSGGGTTYADSVKGRFTISRDNAKNTVYLQMNSLKPEDTAVYYCNKQDQPVGRSGYPYGYDYWGQGTQVTVSS”: “low polyreactivity”.
As to “QVQLVESGGGLVQAGGSLRLSCAASGSIFSFNAMGWYRQAPGKERELVAAITTSGGSTYADSVKGLFTISRDNAKNTVYLQMNSLKPEDTAVYYCAVVGEVEGYYWDDYWGQGTKVTVSS”, the “polyreactivity (PSR sort gate)” value is “low polyreactivity”.
On to “QVQLVESGGGLVQAGGSLRLSCAASGSIFSFYAMGWYRQAPGKERELVAAISWSGGSTYYADSVKGRFTISRDNAKNTVYLQMNSLKPEDTAVYYCAADYYYGTYDYWGQGTQVTVST”, for which the “polyreactivity (PSR sort gate)” value is reported as “low polyreactivity”.
The same measure for “QVQLVESGGGLVQAGGSLRLSCAASGSIFSFYAMGWYRQAPGKERELVAAITSDGSTDYADSVKGRFTISRDNAKNTVYLQMNSLKPEDTAVYYCAADYIVRVVSRYRYGYEYWGQGTQVTVSL”: “low polyreactivity”.
The same measure for “QVQLVESGGGLVQAGGSLRLSCAASGSIFSFYAMGWYRQAPGKERELVAGIDISGGSTYYADSVKGRFTISRDNAKNTVYLQMNSLKPEDTAVYYCAAAKRTDYFYFVAKSGFRYYSWGQGTQVTVSS”: “high polyreactivity”.
The same measure for “QVQLVESGGGLVQAGGSLRLSCAASGSIFSFYAMGWYRQAPGKERELVASITRRGGSTSYADSVKGRFTISRDNAKNTVYLQMNSLKPEDTAVYYCATESKFISVQRVGYYYVKFDYWGQGTQVTVSS”: “high polyreactivity”; for “QVQLVESGGGLVQAGGSLRLSCAASGSIFSFYTMGWYRQAPGKERELVASSTTYADSVKGRFTISRDNAKNTVYLQMNSLQPEDTAVYYCATRHPARRDYWGQGTQVTVSS”: “low polyreactivity”; for “QVQLVESGGGLVQAGGSLRLSCAASGSIFSFYTMGWYRQAPGKERELVATISWRSGSTYYADSVKGRFTISRDNAKNTVYLQMNSLKPEDTAVYYCARSTSRYYYWGQGTQVTVSS”: “high polyreactivity”.
In the case of “QVQLVESGGGLVQAGGSLRLSCAASGSIFSGNAMGWYRQAAGKERELVAVITYRSSRTYYADSVKGRFTISRDNAKNTVYLQMNSLKPEDTAVYYCAAYSNRVVKGYGYWGQGTQVTVSS”, the “polyreactivity (PSR sort gate)” value was “high polyreactivity”.
The same measure for “QVQLVESGGGLVQAGGSLRLSCAASGSIFSGNAMGWYRQAPGKERELVAAIDWSGDSTYYADSVKGRFTISRDNAKNTVYLQMNSLKPEDTAVYYCNTVSFSWGYSAYDYWGQGTQVTVSS”: “low polyreactivity”.
The same measure for “QVQLVESGGGLVQAGGSLRLSCAASGSIFSGNAMGWYRQAPGKERELVAAISRNGGSTYYADSVKGRFTISRDNAMNTVYLQMISLKPEDTAVYYCAASWYRRKIYYSWGQGTQVTVSS”: “high polyreactivity”; for “QVQLVESGGGLVQAGGSLRLSCAASGSIFSGNVMGWYRPAPGKERELVAAISGRGGSTYYPDSVKGRFTISRDNAKNTVFLQMNSRNPVDTAVYECAAVYLKTYYWGQGTQVTVSS”: “high polyreactivity”; for “QVQLVESGGGLVQAGGSLRLSCAASGSIFSGWYTMGWYRQAPWKERELVASISISTTDTYYADSVKGRFTISRDNAKNTVYVQMNSLKPEDTAVYYCAASGWDHVIVEYDYWGQGTQVTVSS”: “low polyreactivity”.
For “QVQLVESGGGLVQAGGSLRLSCAASGSIFSGYVMGWYRQAPGKERELVAAIDNSSGSTYYADSVKGRFTISRDNAKNTVYLQMNSLKPEDTAVYYCAADYYSKAYSEYDYWGQGTQVTVSS”, the “polyreactivity (PSR sort gate)” value is given as “low polyreactivity”.
In the case of “QVQLVESGGGLVQAGGSLRLSCAASGSIFSHYVMGWYRQAPGKERELVAAISRSGGTTYYADSVKGRFTISRDNAKNTVYLQMNSLKPEDTAVYYCNVRGEPYPYYDGYEYDYWGQGTQVTVSS” it was “low polyreactivity”.
The same measure for “QVQLVESGGGLVQAGGSLRLSCAASGSIFSIYAMGWYRQAPGKERELVAAIDSGTSTTYADSVKGRFTISRDNAKNTVYLQMNSLKPEDTAVYYCAAALYSDVAAVATYVYYWGQGTQVTVSS”: “low polyreactivity”.
The same measure for “QVQLVESGGGLVQAGGSLRLSCAASGSIFSIYAMGWYRQAPGKERELVASITRSSGRTYYADSVKGRFTISRDNAKNTVYLQMNSLKPEDTAVYYCNAVWNTFISGRSYDYWGQGTQVTVSS”: “low polyreactivity”.
With “QVQLVESGGGLVQAGGSLRLSCAASGSIFSKNAMGWYRQAPGKERELVAAISWSGDRTYYADSVKGRFTISRDNAKNTVYLQMNSLKPEDTAVYYCAADYTVKYGYWGQGTQVTVSS”, the “polyreactivity (PSR sort gate)” value is “high polyreactivity”.
Regarding “QVQLVESGGGLVQAGGSLRLSCAASGSIFSKYAMGWYRQAPGKERELVAAISISDGNTYYADSVKGRFTISRDNAKNTVYLQMNSLKPEDTAVYYCATVGSEDGDPGFDYWGQGTQVTVSS”, the “polyreactivity (PSR sort gate)” value is recorded as “low polyreactivity”.
The same measure for “QVQLVESGGGLVQAGGSLRLSCAASGSIFSKYVMGWYRQAPGKERELVAAISWSGTRTYYADSVKGRFTISRDNAKNTVYLQMNSLKPEDTAVYYCAARRPVRVPGQYDYWGQGTQVTVSS”: “high polyreactivity”; for “QVQLVESGGGLVQAGGSLRLSCAASGSIFSNNAMGWYRQAPGKEREFVAAIRGRGTRAYYADSVKGRFTISRDNAKNTVYLQMNSLKPEDTAVYYCAASARTYVQSGYWGQGTQVTVSS”: “high polyreactivity”; for “QVQLVESGGGLVQAGGSLRLSCAASGSIFSPNAMGWYRQAPGKERELVAAISRGDSTYYADSVKGRFTISRDNAKNTVYLQMNSLKPEDTAVYYCAATYLRRPVSGAYRSEYNYWGQGTQVTVSS”: “high polyreactivity”.
The same measure for “QVQLVESGGGLVQAGGSLRLSCAASGSIFSPNAMGWYRQAPGKERQLVAAIRSGGSTYYADSVKGRFTISRDNAKNSVYLQMNSLKPADTAVYYCAADTYTYYYYLARYYYWGQGTQVTVSS”: “low polyreactivity”; for “QVQLVESGGGLVQAGGSLRLSCAASGSIFSPYAMGWYRQAPGKERELVAAISWTGGRTYYADSVKGRFTISRDNAKNTVYLQMNSLKPEDTAVYYGAAAYYGTRPYGYWGQGTQVTVSS”: “high polyreactivity”.
